Results published in the supplement of paper PMC10126150.
± gives the standard deviation of the averaged measurements.

The sequences below were run on ATP (assay: switch fluorescence ratio, 500 uM ATP over buffer (Cy3 cluster intensity, sum of 5 cycles each) (fold (ratio)); higher = stronger signal-on switching upon ATP binding; sequences stand for … in TCGTCGGCAGCGTCAGATGTGTATAAGAGACAGTTTTTTTTTTTTTTTTTTTTTTTTT…TC). Details: aptamer strand: ATP DNA aptamer (quencher-CACCTGGGGGAGTATTGCGGAGGAAGG + anchor), 100 nM annealed; ATP concentration: 500 uM.
Summary of the method: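 Clusters with intensities outside 100-1000 RFU were excluded. The remaining Cy3-labelled switching-strand clusters on a modified Illumina MiSeq flow-cell had been annealed to 100 nM quencher-labelled ATP aptamer and imaged in selection buffer, then after 15 min with 500 uM ATP at 22 °C, for five cycles separated by NaOH stripping and re-annealing. The fluorescence ratio, averaged per switch-domain sequence, is each cluster's summed target-cycle Cy3 intensity over its summed buffer-cycle Cy3 intensity.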
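Further: ATP exposure 15 min at 22 °C before imaging.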

In order of rising switch fluorescence ratio:
1. GCGTTGGTCG  0.929 ± 0.0014
2. GCGGTTTGAG  0.933 ± 0.012
3. GCGGTATGCT  0.9517 ± 0.0058
4. GCTATAGGGA  0.957 ± 0.014
5. GCGTAGGTAG  0.964 ± 0.038
6. GCTATTAAGT  0.9695 ± 0.003
7. GCTATTATTA  0.974 ± 0.045
8. GCGTAATGGG  0.975 ± 0.02
9. GCGGTAACGT  0.9765 ± 0.0069
10. GCGGGGTCGT  0.977 ± 0.032
11. GCGTGAGTTG  0.9783 ± 0.0085
12. GCTAGCCATT  0.978 ± 0.029
13. GCGTCAGCGG  0.981 ± 0.02
14. GCGGGGCCAG  0.982 ± 0.011
15. GCGGGTAGCG  0.983 ± 0.022
16. GCGGTTTCGT  0.983 ± 0.012
17. GCTAAAGGCA  0.986 ± 0.043
18. GCTAGATTTA  0.987 ± 0.021
19. GCGGGAGGGG  0.99 ± 0.054
20. GCGGTCAGCT  0.99 ± 0.087
21. GCGGTGCTTG  0.9901 ± 0.0071
22. GCTAATTTGC  0.98953 ± 0.00037
23. GCTCAGTTTG  0.992 ± 0.013
24. GCGGGGGAGG  0.993 ± 0.029
25. GCGGGCATTT  0.995 ± 0.015
26. GCGTGAAGTA  0.997 ± 0.012
27. GCGTACGTAG  0.998 ± 0.019
28. GCGTCGAACA  0.999 ± 0.068
29. GCGGGAAATT  1 ± 0.03
30. GCGGTATTCT  1.001 ± 0.0042
31. GCGGTTGTCC  1.0001 ± 0.00078
32. GCGGTTTAAG  1 ± 0.013
33. GCGTTTACTT  1.004 ± 0.0016
34. GCTAGAAGCG  1.001 ± 0.0099
35. GCTAGGGGGG  1 ± 0.04
36. GCTATTTGCG  1 ± 0.022
37. GCTATTTTTC  1 ± 0.042
38. GCTCAATTGA  1.004 ± 0.01
39. GCGGCTGGGG  1.01 ± 0.057
40. GCGGGATTAT  1.012 ± 0.0057
41. GCGGGGAGGT  1.01 ± 0.055
42. GCGGGTGGTA  1.01 ± 0.041
43. GCGTATCGGA  1.01 ± 0.043
44. GCGTCGTCGG  1.01 ± 0.036
45. GCGTGAGGTG  1.01 ± 0.048
46. GCGTGCAGGG  1.01 ± 0.025
47. GCGTTCGGCC  1.01 ± 0.016
48. GCTAAAACAT  1.0086 ± 0.00063
49. GCTAAAGTTC  1.01 ± 0.0014
50. GCTACCTTTG  1.01 ± 0.014
51. GCTAGAAGGT  1.01 ± 0.03
52. GCTAGGTCTA  1.01 ± 0.034
53. GCTAGTAGTC  1.01 ± 0.046
54. GCTATATTTG  1.01 ± 0.013
55. GCTATTGGCA  1.014 ± 0.01
56. GCGGGTGACC  1.02 ± 0.034
57. GCGGGTTATG  1.02 ± 0.029
58. GCGTATGAGA  1.02 ± 0.013
59. GCGTTGGGTC  1.02 ± 0.014
60. GCGTTTTCGG  1.02 ± 0.039
61. GCTAACACTT  1.02 ± 0.013
62. GCTACAGCTT  1.02 ± 0.015
63. GCTAGGGGGT  1.02 ± 0.09
64. GCTATAGACT  1.02 ± 0.067
65. GCTATGGGGA  1.02 ± 0.02
66. GCTATTGATC  1.02 ± 0.021
67. GCTCAGGCTG  1.02 ± 0.024
68. GCGGGACTTG  1.03 ± 0.029
69. GCGGGCCGTC  1.03 ± 0.023
70. GCGGGGGGCA  1.03 ± 0.055
71. GCGGGTTTTC  1.03 ± 0.017
72. GCGGTGGGGG  1.03 ± 0.03
73. GCGTATTTGC  1.033 ± 0.01
74. GCGTGCATCC  1.03 ± 0.053
75. GCTAAATCGG  1.027 ± 0.0082
76. GCTATTGCGG  1.028 ± 0.0042
77. GCTCATGGTT  1.03 ± 0.046
78. GCGTGTTTTT  1.04 ± 0.013
79. GCTAGCCAAG  1.04 ± 0.053
80. GCTAGTTATG  1.04 ± 0.1
81. GCTATTAGTT  1.04 ± 0.017
82. GCTCACTGTG  1.037 ± 0.0034
83. GCGGGGGAAT  1.05 ± 0.071
84. GCGGGGGTGT  1.05 ± 0.026
85. GCGGGTAAGC  1.05 ± 0.012
86. GCTACTCGAA  1.06 ± 0.02
87. GCTATGGAGC  1.06 ± 0.079
88. GCGTGTGGGC  1.071 ± 0.0066
89. GCTCCTAGCT  1.07 ± 0.028
90. GCGGTACGCT  1.08 ± 0.091
91. GCTACGGGTA  1.08 ± 0.031
92. GCGTAGGTGT  1.09 ± 0.033
93. GCTCCATCGA  1.11 ± 0.015
94. GCGGGTTAGT  1.13 ± 0.13
95. GCGTCTTTAC  1.13 ± 0.024
96. GCTAGGGGTT  1.13 ± 0.25
97. GCGTAATATG  1.16 ± 0.068
98. GCTATACGTA  1.22 ± 0.049
99. GCGTCAAGAG  1.24 ± 0.046
100. GCTATACGAT  2.17 ± 0.18
